Laboratory results from article PMC5559459, “Disruption of the structural and functional features of surfactant protein A by acrolein in cigarette smoke” (Scientific Reports, 2017).

Target: T1, recombinant human TLR4 (hTLR4) (human, UniProt O00206 24-631)
T1 construct: Toll-like receptor 4, human, recombinant; No catalogue number is printed; the bought protein is probably a soluble extracellular construct with a tag (surmise); source: bought: Sino Biological Inc
Experiment: ELISA; 500 ng hTLR4 coated on 96-well plates; 5 μg SP-A in 10 mM HEPES pH 7.4, 0.15 M NaCl, 5 mM CaCl2, 2% fatty acid-free BSA, 37 °C, 5 h; detected with anti-human SP-A polyclonal antibody and HRP anti-rabbit IgG; background (vehicle) subtracted
Conditions: both partners purified

T1 sequence (O00206 24-631): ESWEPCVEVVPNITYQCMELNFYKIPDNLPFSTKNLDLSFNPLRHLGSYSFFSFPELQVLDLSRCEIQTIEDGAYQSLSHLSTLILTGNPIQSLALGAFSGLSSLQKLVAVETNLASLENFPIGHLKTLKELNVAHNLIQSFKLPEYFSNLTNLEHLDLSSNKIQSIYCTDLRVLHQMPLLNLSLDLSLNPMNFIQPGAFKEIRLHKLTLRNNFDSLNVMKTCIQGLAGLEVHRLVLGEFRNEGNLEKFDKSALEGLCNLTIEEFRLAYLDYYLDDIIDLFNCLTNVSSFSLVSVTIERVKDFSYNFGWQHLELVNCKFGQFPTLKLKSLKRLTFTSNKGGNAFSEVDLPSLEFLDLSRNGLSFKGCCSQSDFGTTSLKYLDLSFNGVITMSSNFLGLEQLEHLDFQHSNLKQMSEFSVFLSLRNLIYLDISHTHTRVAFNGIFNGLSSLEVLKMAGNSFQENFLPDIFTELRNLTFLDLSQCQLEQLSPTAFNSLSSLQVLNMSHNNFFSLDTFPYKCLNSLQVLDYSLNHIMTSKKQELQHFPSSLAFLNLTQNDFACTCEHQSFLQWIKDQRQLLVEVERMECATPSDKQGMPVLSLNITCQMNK

| percent decrease of binding against unmodified hSP-A [%] | Binder |
| --- | --- |
| 77.1 | acrolein (10 µM)-modified recombinant human SP-A (natural protein, acrolein adducts (acrolein-lysine adducts, aldehyde adducts, modified free thiols); the sites were not mapped at this 2:1 ratio, pulmonary surfactant protein A, human SP-A1 cDNA expressed and secreted by CHO-K1 cells; Chemically modified form of m1; heterogeneous adducts; also called acrolein (10 μM)-modified SP-A; hSP-A pre-incubated with 10 µM acrolein; source: CHO-K1 cells, purified (mannose-Sepharose); 5 µM hSP-A incubated with 10 µM acrolein in 5 mM Tris-HCl pH 7.4 at 37 °C for 4 h, then dialyzed) not shown |
| 72.6 | acrolein (100 µM)-modified recombinant human SP-A (natural protein, acrolein adducts; at a 20:1 molar ratio of acrolein to SP-A six modified residues were identified: His39, His116, Cys155, Lys180, Lys221, Cys224, pulmonary surfactant protein A, human SP-A1 cDNA expressed and secreted by CHO-K1 cells; Chemically modified form of m1; the sites were mapped by MS on a sample of 25 µM hSP-A with 500 µM acrolein (same 20:1 ratio); also called acrolein (100 μM)-modified SP-A; hSP-A pre-incubated with 100 µM acrolein; source: CHO-K1 cells, purified (mannose-Sepharose); 5 µM hSP-A incubated with 100 µM acrolein in …) not shown |
| 71.9 | cigarette smoke extract (CSE)-modified recombinant human SP-A (natural protein, adducts from cigarette smoke extract (acrolein-lysine adducts, aldehyde adducts, modified free thiols); sites not mapped, pulmonary surfactant protein A, human SP-A1 cDNA expressed and secreted by CHO-K1 cells; Chemically modified form of m1; heterogeneous adducts; also called CSE-modified SP-A; hSP-A pre-incubated with CSE; source: CHO-K1 cells, purified (mannose-Sepharose); 5 µM hSP-A incubated with 10% CSE in 5 mM Tris-HCl pH 7.4 at 37 °C for 4 h, then dialyzed) not shown |
